Molecular target: soluble Aβ (Aβ42) aggregates (human)
Test: cell-based or functional assay

Sequence of soluble Aβ (Aβ42) aggregates (human) (peptide, as listed by the source): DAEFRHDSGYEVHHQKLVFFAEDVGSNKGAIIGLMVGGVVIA

## human IgG isotype control antibody
  Mean (Aβ spots per neuron); Isotype Control 1:50 (Aβ spots per neuron): 58.7
